Positions count from the first letter of the chain named.
B1: LM609 grafted antibody variant S102 (Fab, V domains shown)
VH: QVQLVESGGGVVQPGRSLRLSCAASGFTFSSYDMSWVRQAPGKGLEWVAKVSSGGGSTYYLDTVQGRFTISRDNSKNTLYLQMNSLRAEDTAVYYCARHNYGSFASWGQGTTVTVSS
VL: EIVLTQSPATLSLSPGERATLSCQASQSISNHLHWYQQRPGQAPRLLIRYRSQSISGIPARFSGSGSGTDFTLTISSLEPEDFAVYYCQQSGSWPHTFGGGTKVEIK
notes: Fab; also called clone S102
B2: Vitaxin (antibody, human IgG1, V domains shown)
VH: B1 VH with S106Y
VL: B1 VL with R49K
notes: Human IgG1 constant region and human kappa constant region; also called huLM609M13 1135-4; grafted LM609
B3: LM609 grafted antibody variant Y101 (Fab, V domains shown)
VH: B1 VH with A105Y, S106Y
VL: B1 VL
notes: Fab
B4: LM609 grafted antibody variant Y100 (Fab, V domains shown)
VH: B1 VH with F104Y, S106Y
VL: B1 VL
notes: Fab

Tests used:
[1] = biological target: integrin αvβ3 on cells (M21 human melanoma cells; human umbilical vein endothelial cells) (human) (UniProt P06756); assay: cell-based or functional assay
[2] = biological target: T1, integrin αvβ3, purified from human placenta (human, UniProt P06756 31-1048; P05106 27-788); assay: ELISA titration of bacterial lysate Fab on immobilized αvβ3, inflection points
T1 construct: mature; Native heterodimer, immobilized on ELISA plates or on the BIAcore chip; biotinylated in capture lift and capture ELISA screens; also called αvβ3 receptor; vitronectin receptor
Protocol: (§1) Just prior to use, the plates were washed two times and were then incubated 1 h at 25° C. with various dilutions of Fab. […] All dilutions and washes were in 50 mM Tris-HCl, pH 7.4, 100 mM NaCl, 2 mM CaCl₂, and 1 mM MgCl₂.

[3] = biological target: T1, integrin αvβ3, purified from human …; assay: SPR (BIAcore), purified Fab over immobilized αvβ3
[4] = biological target: T1, integrin αvβ3, purified from human …; assay: ELISA titration of Fab on immobilized αvβ3
Protocol: as §1

[5] = biological target: T1, integrin αvβ3, purified from human …; assay: SPR (BIAcore), purified Fab over immobilized αvβ3; remark: listed apart in the source
Protocol: The affinities of select variants were further characterized by utilizing surface plasmon resonance (BIAcore) to measure the association and dissociation rates of purified Fab with immobilized αᵥβ₃. […] To obtain association rate constants (kₒₙ), the binding rate at five different Fab concentrations, ranging from 5-40 μg/ml in 50 mM Tris-HCl, pH 7.4, 100 mM NaCl, 2 mM CaCl₂, and 1 mM MgCl₂, was determined at a flow rate of 10 μl/min. Dissociation rate constants (koff) were the average of five measurements obtained by analyzing the dissociation phase at an increased flow rate (40 μl/min). Sensorgrams were analyzed with the BIAevaluation 2.1 program (Pharmacia). Residual Fab was removed after each measurement with 10 mM HCl, 2 mM CaCl₂ and 1 mM MgCl₂.

integrin αvβ5 = biological target: T2, integrin αvβ5 (human, UniProt P06756 31-1048; P18084 24-799); assay: ELISA on coated integrin, goat anti-human IgG-alkaline phosphatase
T2 construct: mature
T2 sequence (P06756 31-1048, chain 1 of 2): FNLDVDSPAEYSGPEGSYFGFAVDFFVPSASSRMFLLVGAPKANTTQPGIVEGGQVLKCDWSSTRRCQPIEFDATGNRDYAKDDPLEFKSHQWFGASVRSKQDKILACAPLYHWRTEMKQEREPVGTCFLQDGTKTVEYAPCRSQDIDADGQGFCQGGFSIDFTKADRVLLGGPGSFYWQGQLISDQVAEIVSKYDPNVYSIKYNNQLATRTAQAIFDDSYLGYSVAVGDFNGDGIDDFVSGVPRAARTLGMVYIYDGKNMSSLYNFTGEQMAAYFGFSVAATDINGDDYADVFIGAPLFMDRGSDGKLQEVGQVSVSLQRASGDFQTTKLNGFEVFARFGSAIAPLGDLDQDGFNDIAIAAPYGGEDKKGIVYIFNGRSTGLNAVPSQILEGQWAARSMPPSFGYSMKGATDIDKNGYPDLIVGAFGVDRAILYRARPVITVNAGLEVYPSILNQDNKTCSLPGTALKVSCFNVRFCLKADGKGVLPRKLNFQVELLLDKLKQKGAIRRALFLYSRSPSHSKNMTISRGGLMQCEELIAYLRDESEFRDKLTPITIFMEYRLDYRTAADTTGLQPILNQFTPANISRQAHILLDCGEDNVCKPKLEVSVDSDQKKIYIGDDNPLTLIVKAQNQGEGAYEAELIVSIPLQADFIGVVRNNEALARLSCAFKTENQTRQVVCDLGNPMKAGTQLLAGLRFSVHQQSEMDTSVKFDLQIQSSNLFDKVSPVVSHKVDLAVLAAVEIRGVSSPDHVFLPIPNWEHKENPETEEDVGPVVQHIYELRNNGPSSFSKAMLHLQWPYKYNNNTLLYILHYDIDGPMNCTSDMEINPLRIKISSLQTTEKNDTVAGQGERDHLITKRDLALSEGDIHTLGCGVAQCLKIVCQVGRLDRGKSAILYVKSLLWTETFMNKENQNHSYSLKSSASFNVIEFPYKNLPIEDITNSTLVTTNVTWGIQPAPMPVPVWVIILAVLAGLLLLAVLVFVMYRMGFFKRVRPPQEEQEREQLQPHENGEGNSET
T2 sequence (P18084 24-799, chain 2 of 2): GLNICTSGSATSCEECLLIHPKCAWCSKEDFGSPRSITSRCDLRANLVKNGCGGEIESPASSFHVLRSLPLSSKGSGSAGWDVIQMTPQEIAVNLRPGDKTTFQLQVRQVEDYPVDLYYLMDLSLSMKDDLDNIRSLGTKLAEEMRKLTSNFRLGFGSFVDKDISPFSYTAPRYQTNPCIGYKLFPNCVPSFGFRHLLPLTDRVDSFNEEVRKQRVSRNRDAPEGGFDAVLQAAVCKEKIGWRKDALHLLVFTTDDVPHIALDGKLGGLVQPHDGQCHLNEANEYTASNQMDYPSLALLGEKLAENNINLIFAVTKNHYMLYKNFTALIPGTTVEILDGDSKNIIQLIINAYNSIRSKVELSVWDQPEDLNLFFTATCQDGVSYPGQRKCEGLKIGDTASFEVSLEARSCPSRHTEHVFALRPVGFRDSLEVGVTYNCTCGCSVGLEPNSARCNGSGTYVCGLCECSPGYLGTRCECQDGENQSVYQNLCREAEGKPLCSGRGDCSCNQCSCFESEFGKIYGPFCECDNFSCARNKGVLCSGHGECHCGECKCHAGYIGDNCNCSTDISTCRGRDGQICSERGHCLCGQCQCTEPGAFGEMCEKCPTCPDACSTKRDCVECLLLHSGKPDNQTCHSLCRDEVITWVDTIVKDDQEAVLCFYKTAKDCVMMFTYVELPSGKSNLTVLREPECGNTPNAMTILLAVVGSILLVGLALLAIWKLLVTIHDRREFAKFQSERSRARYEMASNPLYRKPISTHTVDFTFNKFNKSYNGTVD
Protocol: Antibody binding activity was assessed by ELISA using a goat anti-human IgG-alkaline phosphatase conjugate.

T1 sequence (P06756 31-1048, form in doubt, chain 1 of 2): as the sequence (P06756 31-1048, chain 1 of 2) above
T1 sequence (P05106 27-788, form in doubt, chain 2 of 2): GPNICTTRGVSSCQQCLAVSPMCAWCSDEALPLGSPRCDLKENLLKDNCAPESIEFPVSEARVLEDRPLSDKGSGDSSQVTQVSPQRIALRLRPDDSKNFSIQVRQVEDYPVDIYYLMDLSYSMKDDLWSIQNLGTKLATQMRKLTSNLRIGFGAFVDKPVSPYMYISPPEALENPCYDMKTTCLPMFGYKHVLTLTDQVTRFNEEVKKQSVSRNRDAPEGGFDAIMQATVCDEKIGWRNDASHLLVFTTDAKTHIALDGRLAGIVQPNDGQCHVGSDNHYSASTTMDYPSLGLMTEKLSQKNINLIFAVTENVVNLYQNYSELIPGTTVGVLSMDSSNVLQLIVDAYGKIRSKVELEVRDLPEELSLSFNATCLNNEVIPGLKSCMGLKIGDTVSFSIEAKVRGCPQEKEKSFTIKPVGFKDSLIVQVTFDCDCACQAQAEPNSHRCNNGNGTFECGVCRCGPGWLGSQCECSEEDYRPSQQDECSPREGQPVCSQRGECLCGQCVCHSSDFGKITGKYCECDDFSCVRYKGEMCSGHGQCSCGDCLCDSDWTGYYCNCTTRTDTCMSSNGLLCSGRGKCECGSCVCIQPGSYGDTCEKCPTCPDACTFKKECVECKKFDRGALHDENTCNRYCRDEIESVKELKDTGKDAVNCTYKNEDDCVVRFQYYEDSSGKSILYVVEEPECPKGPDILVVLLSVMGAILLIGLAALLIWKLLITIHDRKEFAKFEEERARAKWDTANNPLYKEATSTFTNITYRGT
Chain of integrin αvβ3 on cells (M21 human melanoma cells; human umbilical vein endothelial cells) (human) (P06756 31-1048, chain 1 of 2): as the sequence (P06756 31-1048, chain 1 of 2) above
Chain of integrin αvβ3 on cells (M21 human melanoma cells; human umbilical vein endothelial cells) (human) (P05106 27-788, chain 2 of 2, further chain): as the sequence (P05106 27-788, form in doubt, chain 2 of 2) above

Row | Molecule | inhibition of M21 cell adhesion to fibrinogen: inhibitory concentration for 50% maximal adhesion [1] [ng/mL] | inhibition of vitronectin-induced migration of human umbilical vein endothelial cells (transwell), 5 µg/ml antibody [1] [%] | fold improved affinity over LM609 grafted antibody [2] [fold] | fold higher affinity than LM609 grafted antibody [3] [fold] | fold enhanced binding over parent LM609 grafted antibody [4] [fold] | Kd [5] [nM] | koff [5] [s⁻¹] | kon [5] [M⁻¹ s⁻¹] | binding result (integrin αvβ5) | fold increase in affinity over parent LM609 grafted antibody [3] [fold]
1 | monoclonal antibody LM609 | 50 | 60 |  |  |  |  |  |  |  | 
2 | B1 |  |  | > 3 | 4.6 | > 3 | 6 | 0.00144 | 242000 |  | 
3 | B2 |  |  |  |  |  |  |  |  | no binding (tested: over 1.0 mg/ml) | 
4 | B3 |  |  | > 3 |  | > 3 | 2.2 | 0.00048 | 218000 |  | 12.5
5 | B4 |  |  | > 3 |  | > 3 | 14.3 | 0.00251 | 175000 |  | 
